The text below walks through data of patent US11370837 (dated 2022).

Where two headings read alike, the source gives them in different places.

The target in one experiment is T1, human TIGIT-his (human, UniProt Q495A1).
T1 chain: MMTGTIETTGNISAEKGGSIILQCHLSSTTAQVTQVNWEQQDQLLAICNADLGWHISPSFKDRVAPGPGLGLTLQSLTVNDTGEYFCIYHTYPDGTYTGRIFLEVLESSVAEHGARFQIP
Nature of the experiment: BLI. On the technique in general: BLI is a label-free optical method that tracks binding on a fibre tip over time.

In experiment [1] the target is T2, mouse TIGIT-his (mouse, UniProt P86176).
T2 chain: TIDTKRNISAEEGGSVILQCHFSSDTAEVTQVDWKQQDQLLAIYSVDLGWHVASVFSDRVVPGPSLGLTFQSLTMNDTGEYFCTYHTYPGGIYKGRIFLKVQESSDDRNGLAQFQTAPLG
Description: BLI.

Another experiment addresses monkey TIGIT-his (monkey). Description: BLI.
Experiment [2] has as its target T3, human TIGIT on CHO cells (human, UniProt Q495A1).
T3 chain: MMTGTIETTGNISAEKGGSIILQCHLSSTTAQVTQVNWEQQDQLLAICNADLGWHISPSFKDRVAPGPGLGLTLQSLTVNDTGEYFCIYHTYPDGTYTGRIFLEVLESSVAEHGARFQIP
Description: FACS.

Experiment [3] concerns the target T3, human TIGIT on CHO cells. Description: competition, CD155 blocking FACS.
Experiment [4] has as its target T2, mouse TIGIT-his. Nature of the experiment: BLI.
Experiment [5] concerns the target T3, human TIGIT on CHO cells. Nature of the experiment: FACS, CHO-expressed antibody. (In general: Flow cytometry measures light scatter and fluorescence of single cells or particles in a stream.)
Experiment [6] concerns the target T3, human TIGIT on CHO cells. Nature of the experiment: competition, CD155 blocking FACS.

Sequence of monkey TIGIT-his (monkey) (Q495A1 other isoform, or with tags, fused parts or gaps): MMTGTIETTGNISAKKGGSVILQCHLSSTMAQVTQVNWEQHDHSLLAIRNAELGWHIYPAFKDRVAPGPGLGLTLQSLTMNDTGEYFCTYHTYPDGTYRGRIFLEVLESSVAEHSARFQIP

B1: ADI-30306 (antibody, V domains shown)
VH: QLQLQESGPGLVKPSETLSLTCTVSGGSISSSLYYWGWIRQPPGKGLEWIGSIYYSGSTFYNPSFKSRVTISVDTSKNQFSLKLSSVTAADTAVYYCAREAGRGTTGLLFDYWGQGTLVTVSS
VL: DIQMTQSPSTLSASVGDRVTITCRASQSISSWLAWYQQKPGKAPKLLIYKASSLESGVPSRFSGSGSGTEFTLTISSLQPDDFATYYCQQYGILPRTFGGGTKVEIK
As to B1, the results for the Kd with human TIGIT-his and with monkey TIGIT-his were 2700 pM and 3440 pM, respectively. Further, the binding result with mouse TIGIT-his [1] was “no binding”.

B2: ADI-27301 (antibody, V domains shown)
VH: QLQLQESGPGLVKPSETLSLTCTVSGGSISSSSYYWGWIRQPPGKGLEWIGSIYYSGSTYYNPSLKSRVTISVDTSKNQFSLKLSSVTAADTAVYYCAREAGRGTTGLLFDYWGQGTLVTVSS
VL: DIQMTQSPSTLSASVGDRVTITCRASQSISSWLAWYQQKPGKAPKLLIYKASSLESGVPSRFSGSGSGTEFTLTISSLQPDDFATYYCQQYGILPRTFGGGTKVEIK
Consider B2, for which, in the experiment with human TIGIT on CHO cells [2], the EC50 was 899 pM. The molecule also gave an IC50 in the experiment with human TIGIT on CHO cells [3] of 641 pM.

B3: ADI-30311 (antibody, V domains shown)
VH: QLQLQESGPGLVKPSETLSLTCTVSGGSIASSVYYWGWIRQPPGKGLEWIGSIYYSGSTWYNPSLKSRVTISVDTSKNQFSLKLSSVTAADTAVYYCAREAGRTGTGLLFDYWGQGTLVTVSS
VL: DIQMTQSPSTLSASVGDRVTITCRASQSISSWLAWYQQKPGKAPKLLIYKASSLESGVPSRFSGSGSGTEFTLTISSLQPDDFATYYCQQYGILPRTFGGGTKVEIK
As to B3, the response with human TIGIT on CHO cells [2] was half-maximal at 757 pM (EC50). The IC50 with human TIGIT on CHO cells [3] was 531 pM.

B4: ADI-30293 (antibody, V domains shown)
VH: EVQLVESGGGLVQPGGSLRLSCAASGFTFSSYSMNWVRQAPGKGLEWVSYISSSGTINYADSVKGRFTISRDNAKNSLYLQMNSLRAEDTAVYYCARHRIADSPSRAFDIWGQGTMVTVSS
VL: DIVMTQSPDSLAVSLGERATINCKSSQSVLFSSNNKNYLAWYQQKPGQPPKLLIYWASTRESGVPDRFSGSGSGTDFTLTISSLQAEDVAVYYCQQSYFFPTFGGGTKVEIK
On to B4, for which the Kd with human TIGIT-his was 789 pM; with mouse TIGIT-his [4], 13000 pM; with monkey TIGIT-his, 34900 pM. The EC50 is 900 pM in the experiment with human TIGIT on CHO cells [2] and 229 pM with human TIGIT on CHO cells [5]. Also, the IC50 amounted to 859 pM in the experiment with human TIGIT on CHO cells [3] and 251 pM with human TIGIT on CHO cells [6].

B5: ADI-30296 (antibody, V domains shown)
VH: EVQLVESGGGLVQPGGSLRLSCAASGFTIGGYSMNWVRQAPGKGLEWVSYISSSSTIHYADSVKGRFTISRDNAKNSLYLQMNSLRAEDTAVYYCARHRIGRSPSRAFDIWGQGTMVTVSS
VL: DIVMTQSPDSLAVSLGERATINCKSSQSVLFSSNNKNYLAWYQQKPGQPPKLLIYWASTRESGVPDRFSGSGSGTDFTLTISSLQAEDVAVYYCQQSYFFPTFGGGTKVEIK
B5 came in with a 50% effective concentration (EC50) with human TIGIT on CHO cells [2] of 371 pM. The same molecule came in with an IC50 with human TIGIT on CHO cells [3] of 278 pM.

B6: ADI-30268 (antibody, V domains shown)
VH: QVQLVQSGAEVKKPGASVKVSCKASGYTFGSYYMGWVRQAPGQGLEWMGIIDPSGGRTSYARKFQGRVTMTRDTSTSTVYMELSSLRSEDTAVYYCARARTPSSWPYGMDVWGQGTTVTVSS
VL: DIQMTQSPSSLSASVGDRVTITCRASQSINSYLNWYQQKPGKAPKLLIYAASSLQSGVPSRFSGSGSGTDFTLTISSLQPEDFATYYCQQSLLTPFTFGGGTKVEIK
In the case of B6, the Kd in the experiment with human TIGIT-his was 3290 pM; with mouse TIGIT-his [4], 46400 pM; with monkey TIGIT-his, 62300 pM. In addition, the EC50 was 329 pM with human TIGIT on CHO cells [2] and 139 pM with human TIGIT on CHO cells [5]. The values for the IC50 with human TIGIT on CHO cells [3] and with human TIGIT on CHO cells [6] were 221 pM and 140 pM, respectively.

B7: ADI-30267 (antibody, V domains shown)
VH: QVQLVQSGAEVKKPGASVKVSCKASGYTFRSYYMSWVRQAPGQGLEWMGIIDPSGGRTSFAQKFQGRVTMTRDTSTSTVYMELSSLRSEDTAVYYCARARYPESWPYGMDVWGQGTTVTVSS
VL: DIQMTQSPSSLSASVGDRVTITCRASQSINSYLNWYQQKPGKAPKLLIYAASSLQSGVPSRFSGSGSGTDFTLTISSLQPEDFATYYCQQSLLTPFTFGGGTKVEIK
Consider B7, for which it took 740 pM to reach a half-maximal effect in the experiment with human TIGIT on CHO cells [2] (EC50). Further, in the experiment with human TIGIT on CHO cells [3], the IC50 was 278 pM.

B8: ADI-27238 (antibody, V domains shown)
VH: QVQLVQSGAEVKKPGASVKVSCKASGYTFTSYYMSWVRQAPGQGLEWMGIINPSGGSTSYAQKFQGRVTMTRDTSTSTVYMELSSLRSEDTAVYYCARARYPSSWPYGMDVWGQGTTVTVSS
VL: DIQMTQSPSSLSASVGDRVTITCRASQSINSYLNWYQQKPGKAPKLLIYAASSLQSGVPSRFSGSGSGTDFTLTISSLQPEDFATYYCQQSLLTPFTFGGGTKVEIK
For the molecule B8, the EC50 with human TIGIT on CHO cells [2] was determined as 751 pM. In the experiment with human TIGIT on CHO cells [3], this molecule yielded an IC50 of 418 pM.

B9: ADI-30278 (antibody, V domains shown)
VH: QVQLVQSGAEVKKPGASVKVSCKASGYTFTEYYMHWVRQAPGQGLEWMGIISPSAGSTKYAQKFQGRVTMTRDTSTSTVYMELSSLRSEDTAVYYCARDHDIRLAGRLADYWGQGTLVTVSS
VL: DIQMTQSPSSVSASVGDRVTITCRASQGISSWLAWYQQKPGKAPKLLISAASSLQSGVPSRFSGSGSGTDFTLTISSLQPEDFATYYCQQAVILPITFGGGTKVEIK
In the case of B9, the results for the Kd with human TIGIT-his and with monkey TIGIT-his were 1750 pM and 4530 pM, respectively. In the experiment with mouse TIGIT-his [1], the binding result is “no binding”. The figures for the EC50 with human TIGIT on CHO cells [2] and in the experiment with human TIGIT on CHO cells [5] were 409 pM and 132 pM, respectively. The IC50 amounted to 218 pM with human TIGIT on CHO cells [3] and 116 pM with human TIGIT on CHO cells [6].

B10: ADI-27297 (antibody, V domains shown)
VH: QVQLVQSGAEVKKPGASVKVSCKASGYTFTSYYMHWVRQAPGQGLEWMGIINPSGGSTSYAQKFQGRVTMTRDTSTSTVYMELSSLRSEDTAVYYCARDHDIAAAGRLADYWGQGTLVTVSS
VL: DIQMTQSPSSVSASVGDRVTITCRASQGISSWLAWYQQKPGKAPKLLISAASSLQSGVPSRFSGSGSGTDFTLTISSLQPEDFATYYCQQAVILPITFGGGTKVEIK
For the molecule B10, the EC50 with human TIGIT on CHO cells [2] worked out at 496 pM. This molecule had an IC50 with human TIGIT on CHO cells [3] of 603 pM.

B11: ADI-30286 (antibody, V domains shown)
VH: EVQLLESGGGLVQPGGSLRLSCAASGFTFGPYGMSWVRQAPGKGLEWVSAISGSGASTWYADSVKGRFTISRDNSKNTLYLQMNSLRAEDTAVYYCAKDPGTHYSGYYYIWRYWGQGTLVTVSS
VL: EIVMTQSPATLSVSPGERATLSCRASQSVSSNLAWYQQKPGQAPRLLIYSASTRATGIPARFSGSGSGTEFTLTISSLQSEDFAVYYCQQYVPHPPFTFGGGTKVEIK
In the case of B11, the Kd with human TIGIT-his was 1760 pM; in the experiment with mouse TIGIT-his [4], 134000 pM; with monkey TIGIT-his it was 10600 pM. The EC50 in the experiment with human TIGIT on CHO cells [2] came out at 446 pM; in the experiment with human TIGIT on CHO cells [5] it was 176 pM. In addition, the IC50 with human TIGIT on CHO cells [3] was found to be 296 pM; with human TIGIT on CHO cells [6], 189 pM.

B12: ADI-30288 (antibody, V domains shown)
VH: EVQLLESGGGLVQPGGSLRLSCAASGFTFGPYGMSWVRQAPGKGLEWVSAISGSGASTWHADSVKGRFTISRDNSKNTLYLQMNSLRAEDTAVYYCAKDPGTDSTGYYYIWRYWGQGTLVTVSS
VL: EIVMTQSPATLSVSPGERATLSCRASQSVSSNLAWYQQKPGQAPRLLIYSASTRATGIPARFSGSGSGTEFTLTISSLQSEDFAVYYCQQYVPHPPFTFGGGTKVEIK
Turning to B12, the Kd worked out at 1310 pM with human TIGIT-his, 5700 pM with mouse TIGIT-his [4] and 7190 pM with monkey TIGIT-his. Besides, the EC50 in the experiment with human TIGIT on CHO cells [2] worked out at 476 pM; with human TIGIT on CHO cells [5], 186 pM. The IC50 with human TIGIT on CHO cells [3] stood at 668 pM; with human TIGIT on CHO cells [6], 224 pM.

B13: ADI-27291 (antibody, V domains shown)
VH: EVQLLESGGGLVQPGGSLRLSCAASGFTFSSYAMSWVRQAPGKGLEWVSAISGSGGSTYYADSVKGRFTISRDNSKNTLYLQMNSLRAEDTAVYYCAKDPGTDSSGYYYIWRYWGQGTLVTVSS
VL: EIVMTQSPATLSVSPGERATLSCRASQSVSSNLAWYQQKPGQAPRLLIYSASTRATGIPARFSGSGSGTEFTLTISSLQSEDFAVYYCQQYVPHPPFTFGGGTKVEIK
In turn, B13 gave an EC50 with human TIGIT on CHO cells [2] of 852 pM. The molecule further showed an IC50 in the experiment with human TIGIT on CHO cells [3] of 1610 pM.

What is called Kd is the free concentration of one partner at which half of the binding sites on the other are occupied at equilibrium, for simple one-to-one binding. Usually EC50 stands for the concentration giving half of the maximal effect. As usually defined, the IC50 is the midpoint of a concentration-inhibition curve.
